Data as given in patent publication US20210015937A1 (CRESCENDO BIOLOGICS, published 2021).

target: T1, recombinant human LAG-3-Fc (human, UniProt P18627 23-450); assay: BLI (Octet); human LAG-3-Fc amine-coupled to biosensor, VH in solution, 1:1 fit
T1 construct: also called human LAG-3 (R&D Systems cat no. 2319-L3); LAG3 antigen
T1 sequence: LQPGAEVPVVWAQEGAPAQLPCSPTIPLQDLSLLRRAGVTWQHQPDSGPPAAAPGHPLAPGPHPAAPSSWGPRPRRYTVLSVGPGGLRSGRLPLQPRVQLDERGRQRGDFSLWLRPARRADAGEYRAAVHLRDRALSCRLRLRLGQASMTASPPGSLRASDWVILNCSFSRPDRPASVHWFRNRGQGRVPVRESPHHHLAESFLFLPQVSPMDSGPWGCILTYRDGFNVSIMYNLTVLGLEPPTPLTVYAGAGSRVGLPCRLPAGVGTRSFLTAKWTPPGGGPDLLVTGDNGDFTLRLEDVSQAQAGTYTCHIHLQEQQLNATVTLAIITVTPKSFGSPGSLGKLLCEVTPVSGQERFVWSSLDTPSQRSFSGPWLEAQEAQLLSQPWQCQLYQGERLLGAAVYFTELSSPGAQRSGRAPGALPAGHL
Procedure: Binding kinetics were measured in real-time bio-layer interferometer based biosensor Octet (ForteBio). […] All the binding studies were performed in HBS-ET Octet kinetics buffer. Biosensors were washed in Octet kinetics buffer in between different steps. A seven point, two-fold dilution series of each Humabody® VH was made with a top concentration of 1.6 μM. The contact time for each of the association steps was 150 seconds and the dissociation step was 300-400 seconds. Kinetic association (kₐ) and dissociation (kd) rate constants were determined by processing and fitting the data to a 1:1 binding model using ForteBio Analysis software.

Binder | Kd [nM] | koff [s⁻¹] | kon [M⁻¹ s⁻¹]
VH 1.2 (VHH, Human VH single domain antibody against LAG-3; It is VH 1.1 with S23A, P119Q, N57S and S58T; also called variant 2) VHH: EVQLVESGGGVVRPGGSLRLSCAASGFTFDDYGMSWVRQAPGKGLEWVSGIHWNGGSTGYADSVKGRFTISRDNAKNSLYLQMNSLRAEDTALYYCARIPREDCSSASCYTDAIDFWGQGTMVTVSS | 72.1 | 0.00179 | 24800
variant 5 of VH 1.1 (VHH, 4) VHH: EVQLVESGGGVVRPGGSLRLSCAASGFTFNDFGMSWVRQAPGKGLEWVSGIHWNGGNTGYADSVKGRFTISRDNAKNSLYLQMNSLRAEDTALYYCARIPREDCSSASCYTDAIDFWGPGTMVTVSS | 7.9 | 0.000517 | 65500
variant 7 of VH 1.1 (VHH, 4) VHH: EVQLVESGGGVVRPGGSLRLSCAASGFTFDDFGMSWVRQAPGKGLEWVSGIHWNGGNTGYADSVKGRFTISRDNAKNSLYLQMNSLRAEDTALYYCARIPREDCSVAACYTDAIDFWGPGTMVTVSS | 35.5 | 0.000847 | 23900
variant 6 of VH 1.1 (VHH, 4) VHH: EVQLVESGGGVVRPGGSLRLSCAASGFTFDDFGMSWVRQAPGKGLEWVSGIHWNSDITAYADSVKGRFTISRDNAKNSLYLQMNSLRAEDTALYYCARIPREDCSSASCYTDAIDFWGPGTMVTVSS | 31.3 | 0.00343 | 110000
variant 1 of VH 1.1 (VHH) VHH: EVQLVESGGGVVRPGGSLRLSCAASGFTFDDYGMSWVRQAPGKGLEWVSGIHWNGGNSGYADSVKGRFTISRDNAKNSLYLQMNSLRAEDTALYYCARIPREDCSSASCYTDAIDFWGPGTMVTVSS | 35.5 | 0.000912 | 27000
variant 4 of VH 1.1 (VHH, 4) VHH: EVQLVESGGGVVRPGGSLRLSCAASGFTFDDYGMSWVRQAPGKGLEWVSGIHWIGGNSGYADSVKGRFTISRDNAKNSLYLQMNSLRAEDTALYYCARIPREDCSSASCYTDAIDFWGPGTMVTVSS | 8.41 | 0.000479 | 56900
variant 8 of VH 1.1 (VHH, 4) VHH: EVQLVESGGGVVRPGGSLRLSCAASGFTFNDYGMSWVRQAPGKGLEWVSGIHWNGGNSGYADSVKGRFTISRDNAKNSLYLQMNSLRAEDTALYYCARIPREDCSSTSCYTDAIDFWGPGTMVTVSS | 13 | 0.00126 | 96700
variant 3 of VH 1.1 (VHH, 4) VHH: EVQLVESGGGVVRPGGSLRLSCAASGFTFDDYGMSWVRQAPGKGLEWVSGIHWNGGSTGYADSVKGRFTISRDNAKNSLYLQMNSLRAEDTALYYCARIPREDCSSASCYTDAIDFWGPGTMVTVSS | 34.5 | 0.000899 | 26100
variant 9 of VH 1.1 (VHH, 4) VHH: EVQLVESGGGVVRPGGSLRLSCAASGFTFDDYGMSWVRQAPGKGLEWVSGIHWNGDSTGYADSVKGRFTISRDNAKNSLYLQMNSLRAEDTALYHCARIPREDCSSASCYTDAIDFWGPGTMVTVSS | 53.2 | 0.00383 | 72100
